Laboratory results taken from patent US20070131547A1.

Target: goxDp-Dzip2 (diaphorase derived from Gluconobacter oxydans, Dzip2 association site fused at the C-terminal side) (Gluconobacter oxydans)
Assay: cell-based or functional assay

“His-bmaEDH-Dzip1 (glutamic acid dehydrogenase derived from Burkholderia mallei, His tag, Dzip1 assoc (enzyme)” was tested, and the maximum electric power (glutamic acid fuel cell) was 106 µW/cm^2 and the shortcircuit current density (glutamic acid fuel cell) was 1230 µA/cm^2.
